Measured values reported in patent publication US20240270821A1, “GIP/GLP1/GCG TRI-RECEPTOR AGONISTS AND USES THEREOF” (priority 2023, published 2024).
Non-standard residues stand in square brackets, D forms with d. No end group written: not given here. αMeL = CC(C)C[C@](C)(N)C(=O)O; Aib = CC(C)(N)C(=O)O

T1: human GIP receptor (human) (UniProt P48546)
T1 sequence (looked up): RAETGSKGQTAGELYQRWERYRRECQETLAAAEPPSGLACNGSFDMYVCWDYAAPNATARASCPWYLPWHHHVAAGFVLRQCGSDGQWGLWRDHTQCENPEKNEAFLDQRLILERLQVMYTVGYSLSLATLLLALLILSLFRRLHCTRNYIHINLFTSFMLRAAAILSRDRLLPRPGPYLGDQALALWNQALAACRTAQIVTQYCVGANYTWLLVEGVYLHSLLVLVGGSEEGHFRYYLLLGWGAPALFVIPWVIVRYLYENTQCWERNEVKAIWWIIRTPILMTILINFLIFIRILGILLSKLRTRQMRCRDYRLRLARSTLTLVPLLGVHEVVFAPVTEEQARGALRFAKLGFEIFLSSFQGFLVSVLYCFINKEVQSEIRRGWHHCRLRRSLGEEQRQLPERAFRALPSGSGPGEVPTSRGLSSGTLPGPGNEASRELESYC


Experiments:
Assay in all cases: cell-based or functional assay
[1] = target: T1, human GIP receptor (human)
[2] = target: human GLP1-R (SNAP-GLP-1R expressed in HEK293 cells) (human) (UniProt P43220)
hGLP-1R = hGLP-1R (Homo sapiens, UniProt P43220)
[3] = target: human glucagon receptor (human) (UniProt P47871)
[4] = target: human GLP-1R (SNAP-GLP-1R expressed in HEK293 cells) (human) (UniProt P43220)
Sequence of human GLP-1R (SNAP-GLP-1R expressed in HEK293 cells) (human) (P43220 24-463): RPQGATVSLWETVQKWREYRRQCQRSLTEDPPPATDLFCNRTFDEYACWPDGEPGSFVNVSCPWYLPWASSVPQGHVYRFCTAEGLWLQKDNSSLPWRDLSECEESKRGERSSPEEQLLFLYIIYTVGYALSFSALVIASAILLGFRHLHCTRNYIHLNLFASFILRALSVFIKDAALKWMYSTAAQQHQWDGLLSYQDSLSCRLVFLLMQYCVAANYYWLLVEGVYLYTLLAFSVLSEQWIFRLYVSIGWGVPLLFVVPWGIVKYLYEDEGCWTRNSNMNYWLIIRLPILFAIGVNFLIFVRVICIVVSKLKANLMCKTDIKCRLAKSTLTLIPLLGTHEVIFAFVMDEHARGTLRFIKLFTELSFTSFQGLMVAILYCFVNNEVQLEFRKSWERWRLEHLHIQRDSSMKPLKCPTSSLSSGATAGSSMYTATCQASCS

Sequence of hGLP-1R (P43220 24-463): as above
Sequence of human GLP1-R (SNAP-GLP-1R expressed in HEK293 cells) (human) (P43220 24-463): as above
Sequence of human glucagon receptor (human) (P47871 26-477): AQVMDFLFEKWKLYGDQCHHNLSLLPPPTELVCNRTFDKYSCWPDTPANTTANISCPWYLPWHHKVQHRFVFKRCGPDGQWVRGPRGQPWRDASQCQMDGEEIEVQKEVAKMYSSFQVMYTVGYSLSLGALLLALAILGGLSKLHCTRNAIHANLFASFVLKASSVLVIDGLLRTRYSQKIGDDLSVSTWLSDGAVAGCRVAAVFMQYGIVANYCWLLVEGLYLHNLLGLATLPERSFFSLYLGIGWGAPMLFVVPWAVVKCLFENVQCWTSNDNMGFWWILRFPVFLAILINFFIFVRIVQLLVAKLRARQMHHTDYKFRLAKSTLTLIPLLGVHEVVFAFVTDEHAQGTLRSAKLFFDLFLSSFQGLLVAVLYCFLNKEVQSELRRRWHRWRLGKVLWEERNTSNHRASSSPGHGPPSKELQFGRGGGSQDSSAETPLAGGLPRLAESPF

Binder | Relative cAMP EC50 [1] | cAMP Rel EC50 (in the presence of 1% HSA) [1] | GLP1R Internalization EC50 [2] | Internalization % TOP [2] | Relative cAMP EC50 (hGLP-1R) | cAMP Rel EC50 (in the presence of 1% HSA) (hGLP-1R) | Relative cAMP EC50 [3] | cAMP Rel EC50 (in the presence of 1% HSA) [3] | GLP1R Internalization EC50 [4] | Internalization % TOP [4]
Y[Aib]QGTFTSDFSK[αMeL]LDKKAQQAFIEYLLA[Aib]GPSSGAPPPSEG-NH2 (not fully specified (residue 17)) [Example 30] | 0.247 nM | 72.9 nM | 70.4 nM | 72.8% | 3.18 nM | 806 nM | 5.22 nM | 969 nM | – | –
YXQGTFTSDXSKXLDKKAQXAFIEYLIEXGESSGAPPPSGS (synthetic construct; SITE 2: note = 2-Aminoisobutyric Acid; SITE 10: note = 3-(4-Pyridyl)-L-alanine; SITE 13: note = alpha-methyl-leucine; SITE 17: note = Lysine is chemically modified through conjugation of the epsilon-amino group of the Lysine side chain with (2-[2-(2-Amino-ethoxy)-ethoxy]-acetyl)) [Example 280] | 0.105 nM | 15.6 nM | – | – | 0.95 nM | 171 nM | 8.63 nM | 1600 nM | 39.4 nM | 74.9%
YXQGTFTSDXSKXLDKKAQXAFIEYLIEXGESSGEPPPSGS (synthetic construct; SITE 2: note = 2-Aminoisobutyric Acid; SITE 10: note = 3-(4-Pyridyl)-L-alanine; SITE 13: note = alpha-methyl-leucine; SITE 17: note = Lysine is chemically modified through conjugation of the epsilon-amino group of the Lysine side chain with (2-[2-(2-Amino-ethoxy)-ethoxy]-acetyl)) [Example 282] | 0.163 nM | 22.1 nM | – | – | 1.09 nM | 217 nM | 6.98 nM | 1830 nM | 28.7 nM | 71.9%
YXQGTFTSDXSKXLDKKAQXAFIEYLIAXGESSGAPPPSGS (synthetic construct; SITE 2: note = 2-Aminoisobutyric Acid; SITE 10: note = 3-(4-Pyridyl)-L-alanine; SITE 13: note = alpha-methyl-leucine; SITE 17: note = Lysine is chemically modified through conjugation of the epsilon-amino group of the Lysine side chain with (2-[2-(2-Amino-ethoxy)-ethoxy]-acetyl)) [Example 285] | 0.0652 nM | 8.22 nM | – | – | 2.87 nM | 365 nM | 2.32 nM | 409 nM | 59.9 nM | 73.6%
YXQGTFTSDXSQXLDKKAQXAFIEYLIAGGPSSGAPPPSGE (synthetic construct; SITE 2: note = 2-Aminoisobutyric Acid; SITE 10: note = 3-(4-Pyridyl)-L-alanine; SITE 13: note = alpha-methyl-leucine; SITE 17: note = Lysine is chemically modified through conjugation of the epsilon-amino group of the Lysine side chain with (gamma-Glu)2-CO-(CH2)16-CO2H; SITE 20:) [Example 883] | 0.0779 nM | – | – | – | 1.05 nM | – | 4.02 nM | – | 23.9 nM | 77.1%
YXQGTFTSDFSRXLDKKAQXAFIEYLLEGGPSSGAPPPGGS (synthetic construct; SITE 2: note = 2-Aminoisobutyric Acid; SITE 13: note = alpha-methyl-leucine; SITE 17: note = Lysine is chemically modified through conjugation of the epsilon-amino group of the Lysine side chain with (2-[2-(2-Amino-ethoxy)-ethoxy]-acetyl)-(gamma-Glu)-CO-(CH2) 18-CO2H; SITE 20: n) [Example 41] | 0.258 nM | 97.9 nM | 83.7 nM | 62.3% | 2.2 nM | 711 nM | 8.59 nM | 2310 nM | – | –
YXQGTFTSDFSKXLDKKAQXAFIEYLLEXGPSSGAPPPGGS (synthetic construct; SITE 2: note = 2-Aminoisobutyric Acid; SITE 13: note = alpha-methyl-leucine; SITE 17: note = Lysine is chemically modified through conjugation of the epsilon-amino group of the Lysine side chain with (2-[2-(2-Amino-ethoxy)-ethoxy]-acetyl)-(gamma-Glu)-CO-(CH2) 18-CO2H; SITE 20: n) [Example 43] | 0.101 nM | 29.6 nM | 58.2 nM | 68.3% | 1.55 nM | 539 nM | 2.71 nM | 850 nM | – | –
YXQGTFTSDFSXXLDKKAQXAFIEYLLEXGXSSGAPPPSGE (synthetic construct; SITE 2: note = 2-Aminoisobutyric Acid; SITE 12: note = L-ornithine; SITE 13: note = alpha-methyl-leucine; SITE 17: note = Lysine is chemically modified through conjugation of the epsilon-amino group of the Lysine side chain with (2-[2-(2-Amino-ethoxy)-ethoxy]-acetyl)-(gamma-Glu)) [Example 248] | – | 10.6 nM | – | – | – | 438 nM | – | 241 nM | 67.4 nM | 39.5%
YXQGTFTSDFSRXLDKKAQXAFIEYLLEXGPSSGAPPPGGS (synthetic construct; SITE 2: note = 2-Aminoisobutyric Acid; SITE 13: note = alpha-methyl-leucine; SITE 17: note = Lysine is chemically modified through conjugation of the epsilon-amino group of the Lysine side chain with (2-[2-(2-Amino-ethoxy)-ethoxy]-acetyl)-(gamma-Glu)-CO-(CH2) 18-CO2H; SITE 20: n) [Example 42] | 0.115 nM | 32.3 nM | 61.4 nM | 58.3% | 2.17 nM | 700 nM | 5.83 nM | 1520 nM | – | –
YXQGTFTSDFSKXLDKKAQXAFIEYLLAGGPSSGEPPPSEGX (synthetic construct; SITE 2: note = 2-Aminoisobutyric Acid; SITE 13: note = alpha-methyl-leucine; SITE 17: note = Lysine is chemically modified through conjugation of the epsilon-amino group of the Lysine side chain with (2-[2-(2-Amino-ethoxy)-ethoxy]-acetyl)-(gamma-Glu)-CO-(CH2) 18-CO2H; SITE 20: n) [Example 32] | 0.28 nM | 66.1 nM | 86.1 nM | 64.4% | 2.55 nM | 422 nM | 11.6 nM | 1440 nM | – | –
YXQGTFTSDFSXXLDKKAQXAFIEYLLAGGPSSGAPPPSGSE (synthetic construct; SITE 2: note = 2-Aminoisobutyric Acid; SITE 12: note = L-ornithine; SITE 13: note = alpha-methyl-leucine; SITE 17: note = Lysine is chemically modified through conjugation of the epsilon-amino group of the Lysine side chain with (2-[2-(2-Amino-ethoxy)-ethoxy]-acetyl)-(gamma-Glu)) [Example 90] | – | – | 70.8 nM | 49.8% | – | – | – | – | – | –
YXQGTFTSDFSKXLDKKAQXAFIEYLLAGGPSSGEPPPSGEX (not fully specified; synthetic construct; SITE 2: note = 2-Aminoisobutyric Acid; SITE 13: note = alpha-methyl-leucine; SITE 17: note = Lysine is chemically modified through conjugation of the epsilon-amino group of the Lysine side chain with (2-[2-(2-Amino-ethoxy)-ethoxy]-acetyl)-(gamma-Glu)-CO-(CH2) 18-CO2H; SITE 20: n) [Example 33] | 0.285 nM | 70.7 nM | 106 nM | 64.6% | 1.71 nM | 436 nM | 7.04 nM | 1310 nM | – | –
